Data from US6677433B2 (The Regents of the University of California, priority 2001, dated 2004).

Experiments:
Type in all cases: biochemical
trypsin [1] = target: T1, trypsin (Bos taurus, UniProt P00760); assay: Trypsin inhibition assay after reduction of the inhibitors
T1 construct: purchased Sigma Chemical Co. (St. Louis, Mo.) T8640
T1 sequence (P00760 24-246): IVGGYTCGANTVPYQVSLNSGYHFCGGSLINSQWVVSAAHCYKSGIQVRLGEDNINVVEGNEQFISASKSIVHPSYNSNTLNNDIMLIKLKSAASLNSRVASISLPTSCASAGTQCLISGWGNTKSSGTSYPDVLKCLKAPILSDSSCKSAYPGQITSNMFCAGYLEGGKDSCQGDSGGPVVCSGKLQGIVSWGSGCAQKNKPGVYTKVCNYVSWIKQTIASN
Description: (§1) Unless indicated, the reduction of the trypsin inhibitors (0.4 mg/ml) was carried out in 0.1 ml of 20 mM sodium phosphate buffer, pH 7.9 containing 10 mM EDTA at 30° C. for 2 hours. The concentrations of thioredoxin, NTR, and NADPH were 0.024 mg/ml, 0.02 mg/ml, and 0.25 mM, respectively. […] Following reduction, aliquots of the inhibitor mixture were withdrawn either for determination of trypsin inhibitory activity or proteolytic susceptibility. In the subtilisin tests, the inhibitor mixture (50 μl) was directly mixed with subtilisin and incubated at room temperature for 1 hour. With the wheat protease preparation, the pH of the inhibitor mixture (50 μL) was first adjusted to 4.7 by mixing with 35 μl of 200 mM sodium acetate, pH 4.6; 10 μl of the wheat protease preparation was then added and incubation was continued for 2 hours at 37° C. To stop digestion with subtilisin, 2 μl of 100 mM phenylmethylsulfonyl fluoride (PMSF) and 10 μl of 10% SDS were added to the digestion mixture. With the plant protease preparation, digestion was stopped by adding an equal volume of SDS sample buffer [0.125 M Tris-HCl, pH 6.8, 4% (w/v) SDS, 20% (v/v) glycerol, 10% (v/v) β-mercaptoethanol, and 0.02% (w/v) bromophenol blue]. Proteolytic products were analyzed by electrophoresis with 12% or 16% SDS polyacrylamide slab gels (Laemmli, 1970). The dried slab gels were scanned with a laser densitometer (Pharmacia-LKB UltraScan XL) and the peak area of the KTI or BBTI protein band was obtained by integration with a Pharmacia GelScan XL software program.
(§2) Thioredoxin and NTR were assayed as previously described by Florencio et al. (1988). Trypsin activity was measured in 50 mM Tris-HCl, pH 7.9, by following the increase in absorbance at 253 nm with N-benzoyl-L-arginine ethyl ester as substrate (Mundy et al., 1984) or by the release of azo dye into the trichloroacetic acid (TCA)-soluble fraction from azocasein substrate (see below). For trypsin inhibition assays, trypsin (5 to 10 μg) was preincubated with appropriate amounts of KTI or BBTI for 5 minutes at room temperature in 50 mM Tris-HCl, pH 7.9 and proteolytic activity was then determined. While the two substrates yielded similar data, results are presented with only one substrate.
To determine the consequence of reduction by thioredoxin, the trypsin inhibitory activity of the oxidized and reduced forms of KTI and BBTI was compared. […] Similar results were obtained with DTT, a nonphysiological substitute for thioredoxin, and with thioredoxin reduced by lipoic acid, a naturally occurring dithiol.

trypsin [2] = target: T1, trypsin; assay: Heat stability of trypsin inhibitors (trypsin activity, azocasein)
Description: as §1, §2
The question arises as to whether reduction by thioredoxin yields similar results. The results as shown in TABLE XII provide a positive answer to this question. When heated at 80° C. for 15 minutes, the thioredoxin-reduced form of KTI completely lost its ability to inhibit trypsin, whereas its oxidized counterpart retained about half of the original activity (Table XII). […] Nonetheless, as with KTI, the reduced form of BBTI was fully inactivated by heat (Table XII). […]

[3] = system: wheat protease preparation; assay: Proteolysis by a plant protease preparation (SDS-PAGE, laser densitometer)
Description: The endosperm (10-15 g fresh weight) isolated from 5-day germinated wheat seeds by excising the roots and shoots was extracted for 30 minutes at 4° C. with 5 volumes of 200 mM sodium acetate, pH 4.6, containing 10 mM β-mercaptoenthanol. The homogenate was centrifuged for 20 minutes at 48,000 g, 4° C. The pellet was discarded and the supernatant fluid was fractionated with 30-70% ammonium sulfate. This fraction, which represented the protease preparation, was resuspended in a minimum volume of 20 mM sodium acetate, pH 4.6, containing 10 mM β-mercaptoenthanol, and dialyzed against this buffer overnight at 4° C.
Unless indicated, the reduction of the trypsin inhibitors (0.4 mg/ml) was carried out in 0.1 ml of 20 mM sodium phosphate buffer, pH 7.9 containing 10 mM EDTA at 30° C. for 2 hours. […] Proteolytic products were analyzed by electrophoresis with 12% or 16% SDS polyacrylamide slab gels (Laemmli, 1970). […]
To test whether the reduced forms of KTI and BBTI show decreased stability to proteases other than trypsin, both the reduced and oxidized forms of KTI and BBTI were incubated with a wheat protease preparation or with subtilisin and the proteolytic products were analyzed by SDS-PAGE. The extent of proteolysis was determined by measuring the abundance of intact protein on SDS gels by laser densitometer. […]

B1: Soybean Kunitz: Kunitz soybean trypsin inhibitor (protein, UniProt P01070 25-205, looked up)
Trypsin inhibitor A: DFVLDNEGNPLENGGTYYILSDITAFGGIRAAPTGNERCPLTVVQSRNELDKGIGTIISSPYRIRFIAEGHPLSLKFDSFAVIMLCVGIPTEWSVVEDLPEGPAVKIGENKDAMDGWFRLERVSDDEFNNYKLVFCPQQAEDDKCGDIGISIDHDDGTRRLVVSKNKPLVVQFQKLDKESL
increase in trypsin activity effected by the NADP/thioredoxin system (trypsin [1]): 3 fold
Relative Trypsin Activity, inhibitor Reduced by DTT (trypsin [1]; DTT 1 mM, 30° C., 1 hour, no inhibitor = 100): 68.6
Relative Trypsin Activity, inhibitor Reduced by NTS (trypsin [1]; E. coli NTS, 30° C., 2 hours, no inhibitor = 100): 55.6
Relative Trypsin Activity, inhibitor Reduced by LA/Trx h (trypsin [1]; lipoic acid 0.4 mM and wheat thioredoxin h, 30° C., 1 hour): 40.5
Relative Trypsin Activity, inhibitor Oxidized (trypsin [1]; no inhibitor = 100, N-benzoyl-L-arginine ethyl ester): 17.0
Relative Trypsin Activity, inhibitor heated 15 min at 80° C., Oxidized (trypsin [2]): 52.3
Relative Trypsin Activity, inhibitor heated 15 min at 80° C., Reduced (trypsin [2]): 98.7
Relative Trypsin Activity, inhibitor unheated, Reduced (trypsin [2]): 76.4
Relative Trypsin Activity, inhibitor unheated, Oxidized (trypsin [2]; no inhibitor = 100, azocasein): 26.6
degraded by wheat protease preparation [3]: about 80%
